Assay [1] concerns the target Toll-like receptor 4 on the surface of RAW 264.7 murine macrophages (mouse (endogenous in RAW 264.7)) (UniProt Q9QUK6).
Assay [2] shares this target. The source holds these as a separate data set.
For assay [3] the target is unchanged. This is another data set of the same source.

This is an account of results in article PMC6016250.

Chain of UniProt Q9QUK6 (Q9QUK6 26-835): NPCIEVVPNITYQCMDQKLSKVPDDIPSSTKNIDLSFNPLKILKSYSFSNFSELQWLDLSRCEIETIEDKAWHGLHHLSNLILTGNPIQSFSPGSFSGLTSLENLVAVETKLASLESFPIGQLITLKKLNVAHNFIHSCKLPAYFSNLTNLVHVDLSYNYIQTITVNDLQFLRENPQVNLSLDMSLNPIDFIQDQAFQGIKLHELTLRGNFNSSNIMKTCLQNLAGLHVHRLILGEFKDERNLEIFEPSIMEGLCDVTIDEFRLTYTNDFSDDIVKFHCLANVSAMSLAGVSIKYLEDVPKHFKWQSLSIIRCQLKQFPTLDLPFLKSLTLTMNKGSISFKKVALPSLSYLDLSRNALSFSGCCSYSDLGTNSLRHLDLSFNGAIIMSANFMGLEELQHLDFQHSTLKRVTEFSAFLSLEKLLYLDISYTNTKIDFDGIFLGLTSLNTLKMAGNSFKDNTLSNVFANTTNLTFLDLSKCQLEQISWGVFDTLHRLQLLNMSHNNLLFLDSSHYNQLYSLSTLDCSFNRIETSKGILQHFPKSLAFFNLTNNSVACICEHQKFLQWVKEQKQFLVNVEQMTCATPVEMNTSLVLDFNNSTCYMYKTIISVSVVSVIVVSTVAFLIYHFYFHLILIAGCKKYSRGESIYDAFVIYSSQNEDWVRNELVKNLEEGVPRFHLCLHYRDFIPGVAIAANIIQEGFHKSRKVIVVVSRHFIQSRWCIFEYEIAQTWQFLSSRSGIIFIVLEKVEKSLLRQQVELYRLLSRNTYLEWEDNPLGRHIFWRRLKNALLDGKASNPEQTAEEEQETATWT

In assay [1], “recombinant Rv0297PGRS (PGRS domain of the Mycobacterium tuberculosis PE_PGRS protein Rv0297) (from UniProt Q6MX50 1-591) (domain or fragment)” gave a mortality of RAW 264.7 macrophages (alamarBlue assay, 48 h) with 2.5, 5, 10, 20 and 40 µg/ml rRv0297PGRS (12.42% to 36.07%); no significant change in RAW-ΔTLR4 cells of 36.1%. Further, in assay [2], the fold increase of NO (Griess reagent) in RAW 264.7 cells stimulated with 20 µg/ml rRv0297PGRS for 30 h in contrast to unstimulated cells; unchanged in RAW-ΔTLR4 cells was 2 fold; the fold increment of ROS (CellROX green) in RAW 264.7 cells stimulated with rRv0297PGRS for 30 h compared to untreated cells (1.53 and 1.80); unchanged in RAW-ΔTLR4 cells was 1.8 fold. Further, the total percentage of apoptotic RAW 264.7 cells (annexin V/PI staining) with 20 and 40 µg/ml rRv0297PGRS (43.83% and 58.37%) in assay [3] was found to be 58.4%.
